Source: patent US6852842B2, “Methods for functional kidney imaging using small dendrimer contrast agents” (The United States of America as represented by the …, priority 2002, dated 2005)

How the values were obtained:
[1] = Biodistribution and whole body retention of 153Gd-labeled dendrimer-1B4M-Gd conjugates; format: in vivo, nude mice; conditions: for cleared from the body within 15 min after injection / excretion from the body, rank among conjugates: mouse, in vivo
Description: Radioactive dendrimer conjugates used for biodistribution studies were prepared as follows. ^153GdCl3 containing no other stable isotope of Gd (III) was purchased from NEN DuPont (Boston, Mass.). Approximately 1,500 μg of each dendrimer (containing 2 μmol of 1B4M) was reacted with 1.11 MBq (30 μCi) of ^153Gd citrate (46 pmol) in 0.3 M citrate buffer at pH 5 for 30 min at room temperature. The preparation was then mixed with a 3-fold molar excess of non-radiolabeled Gd(III) citrate (6 μmol) to conjugate 1B4M to fully saturate the chelating groups with Gd(III). This reaction was incubated for 30 min before the addition of ethylenediaminetetraacetic acid (EDTA) and subsequent column purification. To remove any non-incorporated free metal, 10 μl of 0.5 M EDTA (Sigma, St. Louis, Mo.) was added to minimized formation of Gd(OH)3 precipitate. The product was purified using a PD-10 column (Pharmacia, Uppsala, Sweden), eluting with PBS, (pH 7.4). The radio-purity of each preparation was analyzed by size-exclusion HPLC using a TSK G3000SW column (TosoHaas, Philadelphia, Pa.; 0.1 M PBS; 0.01 M KCl; pH 7.4; 1 ml/min). DTPA (Sigma) was also labeled with ^153Gd in 0.3-M citrate buffer for 30 min at room temperature. The radiolabeling yields of all preparations ranged from 47% to 55%. The radio-purity of all preparations analyzed by size-exclusion HPLC was greater than 97%.
Seven groups of nude mice (n=4 in each group) were injected with 37 kBq (1 μCi)/200 μl of ^153Gd-labeled dendrimer-1B4M-Gd conjugates or ^153Gd-DTPA. The injected samples were added to non-radioactive preparations and the total gadolinium dose was adjusted to 0.02 mmol Gd/kg, 20% of the dose of Gd-[DTPA]-dimeglumine routinely used clinically. The mice were sacrificed 15 min after the injection of the ^153Gd-labeled preparations and biodistribution studies were performed. The data were expressed as the percentage of the injected dose per gram (% ID/g) of tissue. The carcasses of the mice were also counted to calculate the whole body retention (% ID).

kidneys of mice = assay: Serial dynamic high-resolution MR imaging of the kidneys of mice; format: in vivo
Description: The mice were anesthetized with 1.15 mg of sodium pentobarbital (Dainabot, Osaka, Japan) and placed in the center of the coils. The fast spoiled gradient echo technique ([…] 71; flip angle 30°; scan time 3'07''; phase encoding steps 512×256; 2 number of excitations; slab thickness 16) with fat-suppression technique and serial 3D data acquisition was used to acquire images every 3.1 min from 0 (immediately after injection) to 12 min after injection of the contrast agents for all mice studied. The coronal images were reconstructed with 0.6-mm thick sections with a 0.3-mm overlap reconstruction. The field of view was 6×3 cm and the size of the matrix was 512×256. The reproducibility of the experiments (two mice in each group) was confirmed by repeating the experiments under the same conditions using a different 1.5-tesla superconductive MRI instrument (Signa Horizon, GE).

[2] = in vivo; cited from earlier work
[3] = Contrast-enhanced dynamic whole body 3D-micro-MRI of mice; format: in vivo, nude mice; conditions: 0.03 mmol Gd/kg, all times up to 15 min
Description: To evaluate the whole body pharmacokinetics of the contrast agents, seven groups of 8-week-old female nude mice (n=4 in each group) (NCI, Frederick, Md.) were used to obtain contrast-enhanced dynamic 3D-micro-MR images. […] All images were obtained using the high-resolution wrist coil (GE) with a custom mouse holder using a clinical-grade 1.5-tesla superconductive magnet unit (Signa LX, General Electric Medical System, Milwaukee, Wis.). The mice were anesthetized with 1.15 mg of sodium pentobarbital (Dainabot, Osaka, Japan) and placed in the center of the coils. The fast spoiled gradient echo technique ([…] 19.4/4.2; flip angle 60°; scan time 1'40''; phase encoding steps 256×256; 3 number of excitations; slab thickness 12) with chemical fat-suppression technique and serial 3D data acquisition was used to acquire images every 2 min from 0 (immediately after injection) to 14 min after injection of the contrast agents for all mice studies. The coronal images for dynamic MRI were reconstructed with 2-mm section thickness without gap reconstruction. In addition, slice data was processed into 3D images with the maximum intensity […] (MIP) method (Advantage Windows, General Electric Medical System).

[4] = mice; cited from earlier work
COX-2 knock-out mice = assay: Contrast-enhanced dynamic 3D-micro-MRI of mice with chronic renal failure; format: in vivo; conditions: 0.03 mmol Gd/kg i.v., images over 14 min post-injection
Description: To determine if dendrimer-enhanced MR imaging according to the disclosure could detect chronic kidney failure and renal cysts, serial dynamic MR images of normal and 7 month old COX-2 knock-out mice (n=4) were obtained. The later mice have renal cysts and chronic renal failure. The contrast-enhanced dynamic MRI scans were obtained using the fast spoiled gradient echo technique (efgre3d; TR/TE 20.4/7.2; TI49; flip angle 30°; scan time 1′52″; phase encoding steps 512×256; 3 NEX; slab thickness 16) with fat-suppression technique following intravenous injection of 0.03 mmol Gd/kg G4-(1B4M-Gd)64. Serial multi-slice 3D data was obtained over a period of 14 min post-injection of the contrast agents for all mice studied. The width of the cortex and outer stripe of the outer medulla were measured. The combined width of the cortex and outer medulla measured by PAMAM-G4 enhanced MR imaging was much smaller in COX-2 knockout mice (left) than normal mice (right), and correlated with histological thickness (obtained at the time of sacrifice). […] These images show the thicker width of the cortex and outer medulla in the normal mice (FIG. 7a) in comparison to the COX-2 knockout mice (FIG. 7b). […] Thus, contrast-enhanced dynamic 3D-micro-MR imaging can be used to detect chronic renal failure and renal cysts.

O=C([O-])CN(CCN(CC(=O)[O-])CC(=O)O)CCN(CC(=O)[O-])CC(=O)O.[153Gd+3] [Gd-DTPA, reference compound]
amount of 153Gd-labeled agent remaining in the blood ([1]; nude mice, 15 min after injection, 0.02 mmol Gd/kg): 2.7±0.1 % ID/g

CNC[C@H](O)[C@@H](O)[C@H](O)[C@H](O)CO.CNC[C@H](O)[C@@H](O)[C@H](O)[C@H](O)CO.O=C([O-])CN(CCN(CC(=O)[O-])CC(=O)O)CCN(CC(=O)[O-])CC(=O)O.[Gd+3] [Gd-[DTPA]-dimeglumine, Gd-DTPA-dimeglumine]
visualization of the proximal straight tubule of the kidney (kidneys of mice; double dose 0.06 mmol Gd/kg): not visualized | bright white band at the outer stripe of the outer medulla (kidneys of mice; high-resolution coronal images, dendrimers 0.03 mmol Gd/kg, Gd-[DTPA]-dimeglumine 0.03 or 0.06 mmol Gd/kg): not observed | MRI signal from the renal pelvis region (kidneys of mice; higher doses, e.g. 0.1 mmol Gd/kg): loss of signal

DAB-Am16-(Gd-1B4M)16 [DAB-G2]
cleared from the body within 15 min after injection [1]: Greater than 60 % ID | excretion from the body, rank among conjugates [1]: most rapidly excreted

DAB-Am-32-(Gd-1B4M)32 [DAB-G3]
cleared from the body within 15 min after injection [1]: Greater than 60 % ID | excretion from the body, rank among conjugates [1]: most rapidly excreted

DAB-Am-64-(Gd-1B4M)64 [DAB-G4]
accumulation in the kidney vs PAMAM-G4D-(1B4M)64 [2]: less | accumulation in the liver vs PAMAM-G4D-(1B4M)64 [2]: significantly more

PAMAM-G2D-(Gd-1B4M)16
cleared from the body within 15 min after injection [1]: Greater than 60 % ID | excretion from the body, rank among conjugates [1]: most rapidly excreted

PAMAM-G4D-(Gd-1B4M)64
MRI signal intensity in the left ventricle of the heart [3]: highest | injected dose excreted during the first two days following administration [4]: 20 % ID | combined width of the cortex and outer medulla in COX-2 knockout mice vs normal mice by enhanced MR imaging (COX-2 knock-out mice): much smaller
